Like-named read-outs stand apart in the source and are kept apart here.
Assays:
Experiment in all cases: cell-based or functional assay
[1] = biological target: TGFβ1 (R&D systems) (UniProt P01137)
[2] = biological target: TGFβ1 (R&D systems) (UniProt P01137); remark: listed apart in the source
[3] = biological target: IL-2Rαβγ (on CTLL-2 cells)
[4] = biological target: IL-2Rβ and common γ chain (on 32Dβ cells)
[5] = biological target: IL-2Rβ and common γ chain (on 32Dβ cells); remark: listed apart in the source
[6] = biological target: IL-2Rβ and common γ chain (on 32Dβ cells); remark: listed apart in the source
[7] = biological target: IL-21R (on B9 cells)

Chain of TGFβ1 (R&D systems) (P01137 279-390 limits assumed): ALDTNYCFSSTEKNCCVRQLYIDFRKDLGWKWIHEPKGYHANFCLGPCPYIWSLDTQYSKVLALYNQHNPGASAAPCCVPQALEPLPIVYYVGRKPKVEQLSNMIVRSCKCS
Chain of TGFR-Fc (R&D Systems) (P37173 24-159): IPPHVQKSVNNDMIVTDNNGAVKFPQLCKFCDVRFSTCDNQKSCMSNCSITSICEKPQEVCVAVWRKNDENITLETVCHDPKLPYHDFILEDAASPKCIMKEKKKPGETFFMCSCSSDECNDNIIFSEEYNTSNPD

Q: For “TGFR-Fc (R&D Systems) (from UniProt P37173 24-159) (Fc fusion)”, which IC50, inhibition of TGFβ1 activity, HEK-Blue TGFβ reporter cells [1] is on record?
A: The IC50, inhibition of TGFβ1 activity, HEK-Blue TGFβ reporter cells was 461 pM.

Q: What about the IC50, inhibition of TGFβ1 activity, HEK-Blue TGFβ reporter cells [2] of the same substance?
A: The IC50, inhibition of TGFβ1 activity, HEK-Blue TGFβ reporter cells was 559 pM.

Q: With “recombinant IL-2 (from UniProt P60568 21-153) (ligand)” as the substance, how does the EC50, CTLL-2 cell proliferation (WST-1) [3] read?
A: Its EC50, CTLL-2 cell proliferation (WST-1) is 548 pM.

Q: Which results are given for “recombinant IL-15 (from UniProt P40933 49-162) (ligand)”?
A: EC50, CTLL2 cell proliferation (PrestoBlue) [3]: 4.95 pM; EC50, CTLL2 cell proliferation (WST-1) [3]: 6.22 pM; EC50, 32Dβ cell proliferation (WST-1) [4]: 10.6 pM; EC50, 32Dβ cell proliferation (WST-1) [5]: 1.6 pM; EC50, 32Dβ cell proliferation (WST-1) [6]: 16.6 pM

Q: With “recombinant IL-21 (from UniProt Q9HBE4 32-162) (ligand)” as the substance, how does the EC50, B9 cell proliferation (WST-1) [7] read?
A: Its EC50, B9 cell proliferation (WST-1) is 72600 pM.
